Measurements: patent US20070184522A1, “Cell death modulation via antagonists of Fasl and Fas activation” (University of Pittsburgh of the Commonwealth System of …, priority 2004, published 2007)
“Also recorded” adds a separate entry of the source.

Key:
[1] = target: endogenous Fas of Jurkat cells (human) (UniProt P25445); test: cell-based or functional assay
[2] = tested on: Fas self-assembly in Hepa 1-6 cells; test: FRET assay of CFP-Fas/YFP-Fas in transfected Hepa 1-6 cells; type: cell-based; settings: Hepa 1-6 cells, CFP-Fas and YFP-Fas, FasL with AlphaMet
Protocol: FIG. 3a presents data collected from Jurkat cells (1×10^6) treated with 2 μg/ml of Fas Ligand with or without AlphaMet for 30 minutes on ice. Cells were washed with PBS twice and then incubated with 2 mM of DTSSP in PBS for 30 minutes. The crosslinking process was stopped by 20 mM of Tris (pH 7.5) for another 30 minutes. Cells were spun down and washed with PBS twice and lyzed in RIPA buffer. Cell lysates were subjected to SDS-PAGE under non-reducing or reducing conditions (FIG. 3b) and Western blot analysis using the mouse monoclonal antibody against human Fas. FIG. 3c depicts the quantification of the data in FIG. 3a by densitometry. The data are the mean and SE from three different independent crosslinking and Western blot experiments. […] Frame A: Acceptor CFP-Fas image; Frame B: Acceptor pre-bleach CFP-Fas image; Frame C: Acceptor post-bleach image. Frame D: Donor YFP-Fas image; Frame E: Donor pre-bleach image; Frame F: Donor pre-bleach image. […] Cells were fixed and analyzed by fluorescence microscopy. […]
FRET assay. […] Fret efficiency (E) was calculated as FRETeff=(Dpost−Dpre)/Dpost (Dpost and Dpre are the mean emission intensity […] YFP bleaching).
Fluorescence protein tagged Fas molecules and Hepa 1-6 cells were used for these experiments. […] In these experiments the percent of Fas capping was also determined.

[3] = tested on: Jurkat cells; test: Fas-ligand induced apoptosis in Jurkat cells (Trypan Blue, flow cytometry); type: cell-based, human
Protocol: (§1) For FIG. 4a, Jurkat cells (1.5×10^5) were overnight treated in triplicate with 5 ng/ml of crosslinked human Fas ligand with or without 5 μg/ml of recombinant AlphaMet or 1 μg/ml of the indicated polypeptides. Percent apoptosis was determined by Trypan Blue staining using a hemocytometer. The data are representative and were repeated at least four times. […] The 17 kDa fragment of cleaved Caspase 3 is visualized by this antibody. The blot was reprobed for β-actin as a loading control. For FIG. 4c, serum deprived Hepa 1-6 cells (3×10^5) were overnight treated with 1 μg/ml of crosslinked mouse Fas ligand with or without AlphaMet or the indicated polypeptide. Media were collected and centrifuged to pellet the dead cells. […] The data in FIG. 4c represents three independent experiments.
Apoptosis assay. Pre-washed Jurkat cells in RPMI 1640 medium containing 1% FBS were inoculated in 96-wells at a density of 10^5 cells per well. Apoptosis was induced by cross-linked human Fas-ligand (R&D Systems) at a concentration of 0.5 ng/ml or Anti-Fas (human, activating) clone CH11 (Upstate biotechnology) at a concentration of 500 ng /ml. Hepa 1-6 cells were overnight starved before induction of apoptosis. The apoptosis in Hepa 1-6 was induced by anti-mouse Fas antibody Jo2 (200 ng/ml) or human recombinant Fas-ligand. The extent of cell viability and apoptosis was determined by several methods such as Trypan Blue stain, flow cytometry, LDH assay, and Hoechst staining.

[4] = tested on: Caspase 3 activation in Jurkat cells; test: Cleaved Caspase 3 Western blot in apoptotic Jurkat cells; type: cell-based, human; settings: Fas-ligand
Protocol: as §1
To provide biochemical evidence that AlphaMet inhibited FasL-mediated apoptosis, the activation of Caspase 3, a down stream executioner in Fas mediated apoptosis, was analyzed in apoptotic Jurkat cells.

[5] = tested on: caspase-3 activation in Hepa 1-6 cells; test: Cleaved Caspase 3 in apoptotic Hepa 1-6 cell lysates; type: cell-based, mouse
Protocol: as §1

Chain of endogenous Fas of Jurkat cells (human) (P25445 26-335): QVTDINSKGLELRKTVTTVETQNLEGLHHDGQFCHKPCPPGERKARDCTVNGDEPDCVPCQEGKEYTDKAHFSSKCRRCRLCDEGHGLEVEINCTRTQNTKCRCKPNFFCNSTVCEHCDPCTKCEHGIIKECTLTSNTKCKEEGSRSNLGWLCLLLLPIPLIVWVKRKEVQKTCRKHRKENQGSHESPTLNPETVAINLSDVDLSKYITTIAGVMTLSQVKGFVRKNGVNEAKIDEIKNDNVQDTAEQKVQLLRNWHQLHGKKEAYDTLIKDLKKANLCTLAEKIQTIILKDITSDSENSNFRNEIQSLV
Chain of Fas self-assembly in Hepa 1-6 cells (P25445 26-190 limits assumed): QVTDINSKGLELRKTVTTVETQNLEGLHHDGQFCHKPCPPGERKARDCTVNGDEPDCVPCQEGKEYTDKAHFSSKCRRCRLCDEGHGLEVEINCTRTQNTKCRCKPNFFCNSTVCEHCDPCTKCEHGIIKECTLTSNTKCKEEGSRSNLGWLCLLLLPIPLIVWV

B1: alpha subunit of Met (AlphaMet), amino acid residues 1 to 306, His-tagged (receptor, mouse)
chain: MKAPTVLAPGILVLLLSLVQRSHGECKEALVKSEMNVNMKYQLPNFTAETPIQNVVLHGHHIYLGATNYIYVLNDKDLQKVSEFKTGPVLEHPDCLPCRDCSSKANSSGGVWKDNINMALLVDTYYDDQLISCGSVNRGTCQRHVLPPDNSADIQSEVHCMFSPEEESGQCPDCVVSALGAKVLLSEKDRFINFFVGNTINSSYPPGYSLHSISVRRLKETQDGFKFLTDQSYIDVLPEFLDSYPIKYIHAFESNHFIYFLTVQKETLDAQTFHTRIIRFCSVDSGLHSYMEMPLECILTEKRRKRHHHHHH
In the case of B1, the death rate of Jurkat cells treated with Fas-ligand (Trypan Blue) [1] is reported as 12%, the sub-G1 population of Jurkat cells treated with Fas-ligand (Propidium Iodide, flow cytometry) [1] is reported as 8% and the “FasL-induced FRET” value [2] is reported as “no significant FRET could be detected; also recorded: inhibited the FasL-induced FRET phenomenon”. For the same molecule, the death rate ([3]; Fas-ligand overnight, AlphaMet 5 μg/ml, Trypan Blue) was 12%, the “sub-G1 (apoptotic) population” value ([3]; Propidium Iodide flow cytometry, Fas-ligand) was 8% and the “Caspase 3 activation (17 kDa cleaved form)” value [4] was “markedly reduced”. For the same molecule, the “Activation of caspase-3” value [5] was “also inhibited by the wild type”.
